{"source": "patent US20240101647A1", "about": "(VIB VZW, published 2024)", "binders": {"B1": {"name": "VHH3.42 (VHH)", "VHH": "QVQLQESGGGLVQPGGSLRLSCAASGSAVSINDMGWYRQPPGKQRELVATITKTGSTNYADSVKGRFTISRDNAKNAVYLEMNSLKPEDTATYYCNAWLPYGMGPDYYGMELWGKGTQVTVSS"}, "B2": {"name": "VHH3.92 (VHH)", "VHH": "B1 VHH with S27K, N32S, S56N, V63A, K64Q, N76S, N83A, T92V"}, "B3": {"name": "VHH3.117 (VHH)", "VHH": "B1 VHH with S27K, N32S, V63A, K64Q, A74T, N76S, N83K, T92V"}}, "key": {"BSA": {"biological_target": "T1, BSA (UniProt P02769 25-607)", "T1 construct": "also called Bovine Serum Albumin", "T1 sequence (P02769 25-607 limits assumed)": "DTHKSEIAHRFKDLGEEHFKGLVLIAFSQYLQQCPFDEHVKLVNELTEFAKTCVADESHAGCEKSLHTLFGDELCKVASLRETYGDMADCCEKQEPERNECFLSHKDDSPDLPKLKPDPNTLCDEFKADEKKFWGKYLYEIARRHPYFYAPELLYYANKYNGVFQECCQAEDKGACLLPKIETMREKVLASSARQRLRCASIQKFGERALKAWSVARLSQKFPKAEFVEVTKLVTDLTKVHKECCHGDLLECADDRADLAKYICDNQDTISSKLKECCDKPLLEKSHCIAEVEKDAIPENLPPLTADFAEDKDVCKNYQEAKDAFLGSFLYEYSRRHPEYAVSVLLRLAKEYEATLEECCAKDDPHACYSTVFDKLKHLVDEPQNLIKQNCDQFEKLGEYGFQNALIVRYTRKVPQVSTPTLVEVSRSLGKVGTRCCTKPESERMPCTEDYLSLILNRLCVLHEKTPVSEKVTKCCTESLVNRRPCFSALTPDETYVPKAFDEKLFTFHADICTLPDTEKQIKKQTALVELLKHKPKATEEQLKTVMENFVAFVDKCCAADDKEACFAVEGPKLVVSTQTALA", "assay": "ELISA, coated BSA"}, "[1]": {"biological_target": "SARS-CoV-2 spike protein on VSV-delG pseudovirus particles or on cells (SARS-CoV-2, UniProt P0DTC2 14-1273)", "assay": "cell-based or functional assay"}}, "note": "Numbering of substitutions follows the chain as printed."}
{"binder": "B1", "values": [{"measurement": "binding result", "setting": "BSA", "value": "no binding"}, {"measurement": "neutralization relative to VHH72_h1_S56A", "setting": "[1]", "value": "~6", "unit": "fold"}]}
{"binder": "B2", "values": [{"measurement": "neutralization relative to VHH72_h1_S56A", "setting": "[1]", "value": "~6", "unit": "fold"}]}
{"binder": "B3", "values": [{"measurement": "binding result", "setting": "BSA", "value": "no binding"}, {"measurement": "neutralization relative to VHH72_h1_S56A", "setting": "[1]", "value": "~6", "unit": "fold"}]}
